# Data reported in publication PMC9400960.
# B1: Am2 (XNA)
# strand: AAAAAAAAAAAA
# modifications: 2'-O-methyl-A in middle part; positions in Figure 2/Table 1
# B2: AF2 (XNA)
# strand: AAAAAAAAAAAA
# modifications: 2'-F-A in middle part; positions in Figure 2/Table 1
# B3: m6A2 (ssRNA)
# RNA: AAAAAAAAAAAA
# modifications: N6-methyl-A in middle part; positions in Figure 2/Table 1
# Target: PABP1-190 (RRM1/2) (human, UniProt P11940 1-190)
# Assay: MST competition
# Chain of PABP1-190 (RRM1/2) (P11940 1-190): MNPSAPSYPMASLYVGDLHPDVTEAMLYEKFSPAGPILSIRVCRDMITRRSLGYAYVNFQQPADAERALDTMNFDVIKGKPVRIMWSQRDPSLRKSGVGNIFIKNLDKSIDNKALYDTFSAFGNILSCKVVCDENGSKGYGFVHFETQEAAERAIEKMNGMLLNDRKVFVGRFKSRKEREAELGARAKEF
row,Binder,binding signal
1,B1,~7 fold higher Kd app than A12
2,B2,~4 fold higher Kd app than A12
3,B3,~12 fold higher Kd app than A12
